The values below are quoted from earlier work in paper PMC3037027.

The target of the series is U2AF65 UHM (Homo sapiens) (UniProt P26368). Kind of series: ITC.
Sequence of UniProt P26368 (P26368 372-475, one chain of several): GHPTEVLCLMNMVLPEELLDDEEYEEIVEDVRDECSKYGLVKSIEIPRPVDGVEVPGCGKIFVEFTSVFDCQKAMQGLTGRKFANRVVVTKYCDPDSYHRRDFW

For orientation: Kd means the constant that tells how readily two partners part at equilibrium. As to SF1 1-255 (from UniProt Q15637), the Kd is 12 nM.
